Measured values reported in paper PMC6765112, “Specificity of MYB interactions relies on motifs in ordered and disordered contexts” (Nucleic Acids Research, 2019).
Positions count from the first letter of the chain named. Names and notes keep the numbering of the source. “Also recorded” adds a separate entry of the source. Read-outs that look alike come from different tables or passages of the source. Ends that are not written are not given here. Peptide text beside a SMILES is read from it. * marks the point of attachment. Biotin = O=C1N[C@H]2[C@H](CS[C@H]2CCCCC(=O)*)N1

T1: MYC4 N-terminal domain (L55-N253; MYC4Nt) (Arabidopsis thaliana, UniProt O49687)
T1 construct: MYC4 N-terminal domain (L55-N253; MYC4Nt) using a C-terminal 6×His tag; made in house; host or cells: Escherichia coli BL21(DE3), pET52u plasmid
T1 sequence (O49687 55-253): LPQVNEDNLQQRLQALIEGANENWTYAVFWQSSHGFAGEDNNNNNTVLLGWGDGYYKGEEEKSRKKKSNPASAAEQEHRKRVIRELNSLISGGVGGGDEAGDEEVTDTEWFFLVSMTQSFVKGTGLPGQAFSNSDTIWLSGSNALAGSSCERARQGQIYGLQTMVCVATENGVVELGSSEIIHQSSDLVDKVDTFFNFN

T2: MYC4 N-terminal domain (L55-N253) (Arabidopsis thaliana, UniProt O49687 55-253)
T2 chain: T1 sequence (O49687 55-253)

B1: MYB75: full-length MYB75 (MYB subgroup 6), control prey for GL3 (protein)
chain: MEGSSKGLRKGAWTTEEDSLLRQCINKYGEGKWHQVPVRAGLNRCRKSCRLRWLNYLKPSIKRGKLSSDEVDLLLRLHRLLGNRWSLIAGRLPGRTANDVKNYWNTHLSKKHEPCCKIKMKKRDITPIPTTPALKNNVYKPRPRSFTVNNDCNHLNAPPKVDVNPPCLGLNINNVCDNSIIYNKDKKKDQLVNNLIDGDNMWLEKFLEESQEVDILVPEATTTEKGDTLAFDVDQLWSLFDGETVKFD
modifications: left off: NubG and FRB (from the vector pFRB), end not stated, kept
notes: full-length MYB75 (MYB subgroup 6), control prey for GL3
B2: N191A: mutated MYB29 (AAs 120-222); MIM sequence - S TS KL LAK VA ARA SS - (protein)
chain: GIDPVTHKPLAYDSNPDEQSQSGSISPKSLPPSSSKNVPEITSSDETPKYDASLSSKKRCFKRSSSTSKLLAKVAARASSMGTILGASIEGTLISSTPLSSCL
modifications: left off: NubG and FRB (from the vector pFRB), end not stated, kept
B3: A194L: mutated MYB29 (AAs 120-222); MIM sequence - S TS KL LNK VL ARA SS - (protein)
chain: B2 chain with A72N, A75L
modifications: left off: NubG and FRB (from the vector pFRB), end not stated, kept
B4: A194G: mutated MYB29 (AAs 120-222); MIM sequence - S TS KL LNK VG A RA SS - (protein)
chain: B2 chain with A72N, A75G
modifications: left off: NubG and FRB (from the vector pFRB), end not stated, kept
B5: MYB75 DBD: fragment comprising the MYB DBD (residues M1-P114) (protein, UniProt Q9FE25 1-114, looked up, fragment)
chain: MEGSSKGLRKGAWTTEEDSLLRQCINKYGEGKWHQVPVRAGLNRCRKSCRLRWLNYLKPSIKRGKLSSDEVDLLLRLHRLLGNRWSLIAGRLPGRTANDVKNYWNTHLSKKHEP

What was measured:
[1] = target: T1, MYC4 N-terminal domain (L55-N253; MYC4Nt); experiment: Bio-layer interferometry, binding of MYC4Nt to immobilised biotinylated MIM peptides; conditions: for binding of MYC4Nt to immobilised peptide (in words): BLI, peptide immobilised on streptavidin biosensor, MYC4Nt dilution series
Description: Single colonies of freshly transformed Escherichia coli BL21(DE3), carrying the pET52u plasmid for expressing MYC4 N-terminal domain (AA55-253; MYC4Nt) with a C-terminal 6×His tag, were inoculated in LB with ampicillin and grown overnight (37°C, 200 RPM). The next day, the culture was diluted to OD600 = 0.2 with cold (4°C) LB with ampicillin and grown at 18°C (100 RPM) in a baffled Erlenmeyer flask until OD600 = 1.0 (∼7.5 h). Protein expression was induced by addition of 0.1 mM IPTG, and the cultures grew for further 18 h at 18°C (100 RPM), before harvesting the cells by centrifugation (4000 g, 20 min), and storing the bacterial pellet at −20°C until protein extraction and purification. For extraction and purification, the bacterial pellet was resuspended in BugBuster Master Mix (Merck Millipore), 2.5 ml per 50 ml bacterial culture, containing 1× ethylenediaminetetraacetic acid-free complete protease inhibitor cocktail (Roche) and 1 mM dithiothreitol (DTT). Lysis proceeded by slow end-over-end rotation at room temperature for 30 min, and the lysate was cleared by centrifugation (20.000 g, 20 min, 4°C). The supernatant was diluted five times with His binding buffer (20 mM sodium phosphate, 500 mM NaCl, 40 mM imidazole, 1 mM DTT, pH 7.4) and filtered through a 0.2-micron filter using a syringe, before applying to a HisTrap HP 5 ml (GE Healthcare) IMAC column charged with Ni(II)Cl2. After washing thoroughly, bound protein was eluted with a linear buffer gradient to elution buffer (His binding buffer with 500 mM imidazole) over 20 column volumes, and 1.9 ml fractions collected in a 96-deepwell plate. Based on absorbance at 280 nm during elution, fractions were selected for analysis by sodium dodecyl sulphate-polyacrylamide gel electrophoresis and those fractions showing only the band of the recombinant protein at 22.7 kDa were pooled and concentrated using 3-kDa cut-off PES membrane ultrafiltration centrifugal tubes (Thermo Scientific™ Pierce). Concentrated protein was centrifuged at 20 000 g, 4°C for 10 min before being dialysed overnight to PBS pH 7.4 with 1 mM DTT. Protein concentration was estimated using the Lambert–Beer law based on absorbance at 280 nm, after blanking with the dialysis buffer (dialysate) and protein was stored in aliquots at −80°C. Aliquots of dialysate were stored at −20°C.
Biotinylated peptides were synthesized by TAG Copenhagen A/S (Copenhagen, Denmark). Lyophilized peptide was resuspended in H2O to a concentration of 400–500 μM and stored in aliquots at −80°C. […] Binding was measured with a BLItz Bio-Layer Interferometer (Pall ForteBio) using the advanced kinetics program in the BLItz Pro 1.2 software. […]

GL3 [2] = experiment: Split-ubiquitin assay, GL3 as bait; assay type: cell-based, Arabidopsis thaliana; conditions: yeast, SD-AHLW growth
Description: (§1) The rapamycin-compatible yeast strain NMY51 TOR1-1 Δfpr1 ([35]) was transformed according to DUALhunter™ kit instructions (Dualsystems biotech). Briefly, overnight 2×YPAD cultures were diluted to OD600 = 0.2, and incubated at 30°C, 150 RPM for 4–6 h in 2×YPAD, before harvesting the cells by centrifugation at 700 g for 5 min. The cells were washed with H2O, then 0.1 M LiOAc, before resuspending in 0.1 M LiOAc with 15% glycerol. The competent cells were then aliquoted and stored at −80°C until transformation. For double transformation with bait and prey plasmids, competent cells were thawed on ice, and mixed with transformation mix (240 μl 50% PEG-3350, 35 μl 1 M LiOAc and 25 μl 2 mg/ml ssDNA per transformation) and 200 ng of each plasmid, before being exposed to a 42°C heat shock in a water bath for 45 min. The cells were then chilled on ice for a few minutes, sedimented by centrifugation (3000 g, 1 min), resuspended in sterile H2O, plated on SD-LW plates and grown at 30°C for 2–3 days.
(§2) For drop tests, cells from three individual colonies of each bait/prey combination were grown overnight in liquid SD-LW media. Next day, culture densities were normalized to OD600 = 0.05, dilution series (OD600 = 0.05, OD600 = 0.005, OD600 = 0.0005 and OD600 = 0.00005) were spotted on square plates (SD-LW, SD-AHLW and SD-AHLW+Rapa) and grown for 2 days at 30°C before taking pictures.
(§3) To identify interaction sites mediating specific MYB–MYC complex formation, we selected two TFs from each family. These were MYB28 and MYB29 from MYB subgroup 12, and two of their partner bHLH TFs, MYC3 and MYC4. To define the region mediating the interactions we applied a chemically inducible dimerization split-ubiquitin system ([35]). […] This is used as an in-built positive control for correct expression and functionality of the prey fusion protein and thereby reduces the incidence of false negatives.

MYC4 = experiment: Split-ubiquitin assay, MYC4 as bait; assay type: cell-based, Arabidopsis thaliana; conditions: yeast, SD-AHLW growth
Description: as §1, §2, §3

MYC3 = experiment: Split-ubiquitin assay, MYC3 as bait; assay type: cell-based, Arabidopsis thaliana; conditions: yeast, SD-AHLW growth
Description: as §1, §2, §3

GL3 [3] = conditions: ref [32]; cited from earlier work
Excerpt: To identify interaction sites mediating specific MYB–MYC complex formation, we selected two TFs from each family. These were MYB28 and MYB29 from MYB subgroup 12, and two of their partner bHLH TFs, MYC3 and MYC4. To define the region mediating the interactions we applied a chemically inducible dimerization split-ubiquitin system ([35]). […] As controls, we included the interaction between GL3 and MYB75, where a fragment c ...

[4] = target: T2, MYC4 N-terminal domain (L55-N253); experiment: BLI

Molecule | binding of MYC4Nt to immobilised peptide (in words) [1] | interaction with MYC4 (in words) (MYC4) | interaction with MYC3 (in words) (MYC3) | other results
CSCC[C@H](NC(=O)[C@H](CO)NC(=O)[C@H](CO)NC(=O)[C@H](C)NC(=O)[C@H](CCCNC(=N)N)NC(=O)[C@H](C)NC(=O)[C@H](C)NC(=O)[C@@H](NC(=O)[C@H](CCCCN)NC(=O)[C@H](CC(N)=O)NC(=O)[C@@H](NC(=O)[C@H](CC(C)C)NC(=O)[C@H](CCCCN)NC(=O)[C@H](CO)NC(=O)[C@@H](NC(=O)[C@H](CO)NC(=O)[C@H](CO)NC(=O)[C@H](CO)NC(=O)[C@H](CCCNC(=N)N)NC(=O)[C@H](CCCCN)NC(=O)[C@H](Cc1ccccc1)NC(=O)CCCC[C@@H]1SC[C@@H]2NC(=O)N[C@@H]21)[C@@H](C)O)C(C)C)C(C)C)C(=O)NCC(=O)O [L190V-MIM] (Biotin-FKRSSSTSKLVNKVAARASSMG-OH) | a strong binding signal, but at higher concentrations of MYC4Nt (>10 μM), than was necessary for the WT-MIM |  |  | affinity for MYC4Nt weaker than WT-MIM peptide ([1]; estimated, relative to WT-MIM peptide): ~10 fold
CSCC[C@H](NC(=O)[C@H](CO)NC(=O)[C@H](CO)NC(=O)[C@H](C)NC(=O)[C@H](CCCNC(=N)N)NC(=O)[C@H](C)NC(=O)[C@H](C)NC(=O)[C@@H](NC(=O)[C@H](CCCCN)NC(=O)[C@H](CC(N)=O)NC(=O)[C@H](CC(C)C)NC(=O)[C@H](CC(C)C)NC(=O)[C@H](CCCCN)NC(=O)[C@H](CO)NC(=O)[C@@H](NC(=O)[C@H](CO)NC(=O)[C@H](CO)NC(=O)[C@H](CO)NC(=O)[C@H](CCCNC(=N)N)NC(=O)[C@H](CCCCN)NC(=O)[C@H](Cc1ccccc1)NC(=O)CCCC[C@@H]1SC[C@@H]2NC(=O)N[C@@H]21)[C@@H](C)O)C(C)C)C(=O)NCC(=O)O [WT-MIM] (Biotin-FKRSSSTSKLLNKVAARASSMG-OH) | binding of MYC4Nt was observed even at sub micro molar concentrations; also recorded: stronger binding of the WT-MIM peptide compared to that of the L190V-MIM peptide |  |  | 
L190A-MIM: N-terminally biotinylated 22-residue peptide comprising the L190A MIM sequence of MYB29 (F180-G201) (Biotin-FKRSSSTSKLANKVAARASSMG) | Fit cannot converge; also recorded: an extremely weak response was seen only at high (>100 μM) concentrations of MYC4Nt; also recorded: the fit did not converge; also recorded: unable to detect binding |  |  | 
B1 |  |  |  | interaction with GL3 (in words) (GL3 [2]): results in growth on SD-AHLW plates
B2 |  | abolished the interaction | abolished the interaction | 
B3 |  | abolished the interaction with both MYC3 and MYC4 | abolished the interaction with both MYC3 and MYC4 | 
B4 |  | did not abolish the interaction | did not abolish the interaction | 
B5 |  |  |  | interaction with GL3 (in words) (GL3 [3]): sufficient for this interaction; interaction with GL3 (in words) (GL3 [2]): results in growth on SD-AHLW plates
Biotin-FKRSSSTSKLVNKVAARASSMG [L190V-MIM peptide (F180-G201 of MYB29, L190V)] |  |  |  | Kd [4]: 33 µM
